Results: PMC9482650, “Quantitative fragmentomics allow affinity mapping of interactomes” (Nature Communications, 2022)

T1: DLG3_2, Q92796
T1 sequence (Q92796 221-321, limits assumed, looked up): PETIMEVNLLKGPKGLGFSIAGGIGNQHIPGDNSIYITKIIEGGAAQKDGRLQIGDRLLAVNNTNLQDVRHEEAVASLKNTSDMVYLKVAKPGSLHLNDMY

T2: LIN7A, O14910
T2 sequence (O14910 103-200, limits assumed, looked up): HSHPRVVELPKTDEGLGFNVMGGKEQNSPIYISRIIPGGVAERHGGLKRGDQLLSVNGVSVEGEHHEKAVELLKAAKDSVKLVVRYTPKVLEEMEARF

T3: MPP6, Q9NZW5
T3 sequence (Q9NZW5 125-219, limits assumed, looked up): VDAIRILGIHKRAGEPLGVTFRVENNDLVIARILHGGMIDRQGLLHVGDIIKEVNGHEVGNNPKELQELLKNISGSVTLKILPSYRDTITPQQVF

T4: SHANK1, Q9Y566
T4 sequence (Q9Y566 658-767, limits assumed, looked up): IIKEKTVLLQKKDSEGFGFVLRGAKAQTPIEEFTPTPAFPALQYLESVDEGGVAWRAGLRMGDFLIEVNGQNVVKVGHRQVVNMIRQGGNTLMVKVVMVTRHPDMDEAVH

T5: APBA1_1, Q02410
T5 sequence (Q02410 651-752, limits assumed, looked up): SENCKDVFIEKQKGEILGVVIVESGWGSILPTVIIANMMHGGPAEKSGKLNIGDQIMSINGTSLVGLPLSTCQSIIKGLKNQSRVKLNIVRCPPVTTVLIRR

T6: GRIP1_5, Q9Y3R0
T6 sequence (Q9Y3R0 568-668, limits assumed, looked up): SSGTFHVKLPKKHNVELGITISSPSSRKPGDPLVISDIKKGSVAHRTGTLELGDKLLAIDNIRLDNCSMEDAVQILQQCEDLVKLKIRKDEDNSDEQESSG

T7: MPDZ_5, O75970
T7 sequence (O75970 695-796, limits assumed, looked up): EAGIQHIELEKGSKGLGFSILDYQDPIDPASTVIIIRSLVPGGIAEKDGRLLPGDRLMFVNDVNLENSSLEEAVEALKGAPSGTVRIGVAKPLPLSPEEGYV

T8: SIPA1L2, Q9P2F8
T8 sequence (Q9P2F8 945-1036, limits assumed, looked up): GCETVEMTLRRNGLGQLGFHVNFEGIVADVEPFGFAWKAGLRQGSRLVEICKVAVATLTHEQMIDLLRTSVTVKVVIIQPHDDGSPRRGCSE

T9: DLG3_3, Q92796
T9 sequence (Q92796 374-475, limits assumed, looked up): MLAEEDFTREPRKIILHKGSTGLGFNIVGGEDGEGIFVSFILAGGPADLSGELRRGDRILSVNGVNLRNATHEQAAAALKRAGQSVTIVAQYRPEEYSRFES

T10: RADIL, Q96JH8
T10 sequence (Q96JH8 971-1071, limits assumed, looked up): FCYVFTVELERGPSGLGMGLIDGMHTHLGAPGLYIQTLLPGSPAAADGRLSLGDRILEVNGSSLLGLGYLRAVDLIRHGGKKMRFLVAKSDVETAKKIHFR


What was measured:
Assay in all cases: holdup assay
Set-up in all cases: key: below the threshold = too weak to quantify, mostly under pKd 3.1 to 4
Conditions in all cases: plain residues with an end cap or a label only (N-terminal biotin on a linker: ado-ado)
GRASP, Q7Z6J2 = target: GRASP, Q7Z6J2
DLG3_2, Q92796 = target: T1, DLG3_2, Q92796
ARHGEF12, Q9NZN5-2 = target: ARHGEF12, Q9NZN5-2
SCRIB_3, Q14160 = target: SCRIB_3, Q14160
MAGI3_2, Q5TCQ9 = target: MAGI3_2, Q5TCQ9
LIN7A, O14910 = target: T2, LIN7A, O14910
MPP6, Q9NZW5 = target: T3, MPP6, Q9NZW5
SHANK1, Q9Y566 = target: T4, SHANK1, Q9Y566
IL16_1, Q14005 = target: IL16_1, Q14005
FRMPD4, Q14CM0 = target: FRMPD4, Q14CM0
TJP2_1, Q9UDY2 = target: TJP2_1, Q9UDY2
GORASP2, Q9H8Y8 = target: GORASP2, Q9H8Y8
TJP1_2, Q07157 = target: TJP1_2, Q07157
APBA1_1, Q02410 = target: T5, APBA1_1, Q02410
DLG4_3, P78352 = target: DLG4_3, P78352
MAGI2_2, Q86UL8 = target: MAGI2_2, Q86UL8
LDB3, O75112 = target: LDB3, O75112
GRIP1_5, Q9Y3R0 = target: T6, GRIP1_5, Q9Y3R0
PDLIM1, O00151 = target: PDLIM1, O00151
SCRIB_2, Q14160 = target: SCRIB_2, Q14160
MPDZ_5, O75970 = target: T7, MPDZ_5, O75970
MAGI2_3, Q86UL8 = target: MAGI2_3, Q86UL8
DLG2_2, Q15700 = target: DLG2_2, Q15700
MAGI1_2, Q96QZ7 = target: MAGI1_2, Q96QZ7
DLG5_1, Q8TDM6 = target: DLG5_1, Q8TDM6
SIPA1L2, Q9P2F8 = target: T8, SIPA1L2, Q9P2F8
DLG3_3, Q92796 = target: T9, DLG3_3, Q92796
RADIL, Q96JH8 = target: T10, RADIL, Q96JH8

Sequence of MAGI3_2, Q5TCQ9 (Q5TCQ9 398-503): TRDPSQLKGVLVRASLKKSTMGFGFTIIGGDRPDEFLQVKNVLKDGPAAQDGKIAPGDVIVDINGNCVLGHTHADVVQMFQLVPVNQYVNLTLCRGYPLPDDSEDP
Sequence of GRASP, Q7Z6J2 (Q7Z6J2 96-193): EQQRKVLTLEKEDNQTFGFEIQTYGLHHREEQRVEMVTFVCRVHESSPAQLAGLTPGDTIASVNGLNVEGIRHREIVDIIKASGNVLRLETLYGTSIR
Sequence of FRMPD4, Q14CM0 (Q14CM0 67-160): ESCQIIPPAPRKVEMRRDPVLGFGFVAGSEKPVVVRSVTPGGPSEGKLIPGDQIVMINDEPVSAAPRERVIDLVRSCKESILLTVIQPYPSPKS
Sequence of TJP1_2, Q07157 (Q07157 181-274): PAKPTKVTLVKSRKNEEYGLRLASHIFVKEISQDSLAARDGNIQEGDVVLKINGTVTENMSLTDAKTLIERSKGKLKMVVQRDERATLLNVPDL
Sequence of MAGI2_2, Q86UL8 (Q86UL8 410-522): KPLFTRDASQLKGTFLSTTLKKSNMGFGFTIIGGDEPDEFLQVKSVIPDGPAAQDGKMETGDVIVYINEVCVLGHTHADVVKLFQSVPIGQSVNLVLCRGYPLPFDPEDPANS
Sequence of SCRIB_2, Q14160 (Q14160 857-960): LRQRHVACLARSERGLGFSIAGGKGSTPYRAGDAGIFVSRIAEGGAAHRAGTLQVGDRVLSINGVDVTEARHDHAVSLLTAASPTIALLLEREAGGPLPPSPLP
Sequence of ARHGEF12, Q9NZN5-2 (Q9NZN5 other isoform, or with tags, fused parts or gaps): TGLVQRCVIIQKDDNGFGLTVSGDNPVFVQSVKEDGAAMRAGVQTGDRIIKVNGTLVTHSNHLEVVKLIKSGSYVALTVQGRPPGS
Sequence of MAGI1_2, Q96QZ7 (Q96QZ7 456-580): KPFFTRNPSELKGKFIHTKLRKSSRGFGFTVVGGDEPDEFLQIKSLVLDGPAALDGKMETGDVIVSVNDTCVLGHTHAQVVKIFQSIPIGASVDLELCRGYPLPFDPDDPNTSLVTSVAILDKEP
Sequence of TJP2_1, Q9UDY2 (Q9UDY2 24-128): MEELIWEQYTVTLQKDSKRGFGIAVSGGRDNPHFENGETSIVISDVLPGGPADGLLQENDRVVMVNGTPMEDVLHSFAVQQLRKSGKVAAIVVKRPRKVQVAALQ
Sequence of PDLIM1, O00151 (O00151 1-87): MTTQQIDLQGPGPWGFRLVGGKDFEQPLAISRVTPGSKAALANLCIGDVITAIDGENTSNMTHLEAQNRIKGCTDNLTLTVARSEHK
Sequence of DLG4_3, P78352 (P78352 306-403): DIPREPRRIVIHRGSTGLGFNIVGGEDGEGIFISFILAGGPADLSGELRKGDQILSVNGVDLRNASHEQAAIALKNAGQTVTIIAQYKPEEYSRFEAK
Sequence of DLG5_1, Q8TDM6 (Q8TDM6 617-713): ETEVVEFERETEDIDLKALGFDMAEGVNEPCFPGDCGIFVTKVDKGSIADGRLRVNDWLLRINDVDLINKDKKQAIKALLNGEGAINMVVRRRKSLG
Sequence of MAGI2_3, Q86UL8 (Q86UL8 600-682): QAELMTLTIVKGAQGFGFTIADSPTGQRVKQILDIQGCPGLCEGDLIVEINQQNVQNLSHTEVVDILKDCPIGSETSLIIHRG
Sequence of LDB3, O75112 (O75112 1-94): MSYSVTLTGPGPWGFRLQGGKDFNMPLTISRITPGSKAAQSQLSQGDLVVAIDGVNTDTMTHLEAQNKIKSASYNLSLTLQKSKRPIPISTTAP
Sequence of DLG2_2, Q15700 (Q15700 189-283): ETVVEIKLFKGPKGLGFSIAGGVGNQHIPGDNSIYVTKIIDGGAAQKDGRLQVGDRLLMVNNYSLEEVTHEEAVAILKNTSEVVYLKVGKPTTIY
Sequence of SCRIB_3, Q14160 (Q14160 999-1103): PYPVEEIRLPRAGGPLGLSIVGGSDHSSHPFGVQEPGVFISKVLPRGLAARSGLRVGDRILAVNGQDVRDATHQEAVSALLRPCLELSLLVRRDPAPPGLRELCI
Sequence of IL16_1, Q14005 (Q14005 210-306): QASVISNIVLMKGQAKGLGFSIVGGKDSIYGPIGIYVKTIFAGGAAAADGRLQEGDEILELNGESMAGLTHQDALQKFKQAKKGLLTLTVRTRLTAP

Row | Binder | pKd (GRASP, Q7Z6J2) | pKd (DLG3_2, Q92796) | pKd (ARHGEF12, Q9NZN5-2) | pKd (SCRIB_3, Q14160) | pKd (MAGI3_2, Q5TCQ9) | pKd (LIN7A, O14910) | pKd (MPP6, Q9NZW5) | pKd (SHANK1, Q9Y566) | pKd (IL16_1, Q14005) | pKd (FRMPD4, Q14CM0) | pKd (TJP2_1, Q9UDY2) | pKd (GORASP2, Q9H8Y8) | pKd (TJP1_2, Q07157) | pKd (APBA1_1, Q02410) | pKd (DLG4_3, P78352) | pKd (MAGI2_2, Q86UL8) | pKd (LDB3, O75112) | pKd (GRIP1_5, Q9Y3R0) | pKd (PDLIM1, O00151) | pKd (SCRIB_2, Q14160) | also measured
1 | MLPANYVEAI [NEB, P20929] | below the threshold | 4.11 | below the threshold | below the threshold | below the threshold | below the threshold | below the threshold | below the threshold | below the threshold | below the threshold | below the threshold | 4.31 | below the threshold | below the threshold | below the threshold | below the threshold | below the threshold | below the threshold | below the threshold | below the threshold | pKd (MPDZ_5, O75970): below the threshold; pKd (MAGI2_3, Q86UL8): below the threshold; pKd (DLG2_2, Q15700): below the threshold; pKd (MAGI1_2, Q96QZ7): below the threshold; pKd (DLG5_1, Q8TDM6): below the threshold; pKd (SIPA1L2, Q9P2F8): below the threshold; pKd (DLG3_3, Q92796): below the threshold; pKd (RADIL, Q96JH8): 3.65
2 | TKDKVQETQI [LRRC4, Q9HBW1] | below the threshold | 4.57 | 4.57 | 5 | 4.87 | 3.51 | 3.89 | 3.76 | 3.54 | 3.57 | below the threshold | 3.57 | 3.64 | below the threshold | 4.17 | 4.25 | below the threshold | below the threshold | below the threshold | 4.41 | pKd (MPDZ_5, O75970): below the threshold; pKd (MAGI2_3, Q86UL8): 3.96; pKd (DLG2_2, Q15700): 4.67; pKd (MAGI1_2, Q96QZ7): below the threshold; pKd (DLG5_1, Q8TDM6): below the threshold; pKd (SIPA1L2, Q9P2F8): below the threshold; pKd (DLG3_3, Q92796): 3.98; pKd (RADIL, Q96JH8): below the threshold
3 | ADEMICITTL [CACNA1D, Q01668] | 5.41 | 4.46 | 6.18 | 4.88 | below the threshold | below the threshold | below the threshold | 5.28 | below the threshold | 3.97 | below the threshold | 4.05 | below the threshold | below the threshold | below the threshold | below the threshold | below the threshold | below the threshold | below the threshold | 3.88 | pKd (MPDZ_5, O75970): below the threshold; pKd (MAGI2_3, Q86UL8): 3.56; pKd (DLG2_2, Q15700): 3.81; pKd (MAGI1_2, Q96QZ7): below the threshold; pKd (DLG5_1, Q8TDM6): below the threshold; pKd (SIPA1L2, Q9P2F8): below the threshold; pKd (DLG3_3, Q92796): below the threshold; pKd (RADIL, Q96JH8): 4.62
4 | LVEEEEPMNL [HDAC7, Q8WUI4] | below the threshold | below the threshold | below the threshold | below the threshold | below the threshold | below the threshold | 3.57 | below the threshold | below the threshold | 3.86 | below the threshold | below the threshold | below the threshold | below the threshold | below the threshold | below the threshold | below the threshold | below the threshold | below the threshold | below the threshold | pKd (MPDZ_5, O75970): below the threshold; pKd (MAGI2_3, Q86UL8): below the threshold; pKd (DLG2_2, Q15700): below the threshold; pKd (MAGI1_2, Q96QZ7): below the threshold; pKd (DLG5_1, Q8TDM6): below the threshold; pKd (SIPA1L2, Q9P2F8): below the threshold; pKd (DLG3_3, Q92796): below the threshold; pKd (RADIL, Q96JH8): below the threshold
5 | NISARRFTLC [FAM167B, Q9BTA0] | 4.36 | 4.42 | 4.13 | below the threshold | 4.67 | below the threshold | below the threshold | below the threshold | below the threshold | below the threshold | 4.76 | 3.9 | below the threshold | below the threshold | 4.38 | 4.76 | below the threshold | below the threshold | below the threshold | below the threshold | pKd (MPDZ_5, O75970): below the threshold; pKd (MAGI2_3, Q86UL8): 3.81; pKd (DLG2_2, Q15700): 3.79; pKd (MAGI1_2, Q96QZ7): 5.12; pKd (DLG5_1, Q8TDM6): below the threshold; pKd (SIPA1L2, Q9P2F8): 3.73; pKd (DLG3_3, Q92796): 4.25; pKd (RADIL, Q96JH8): 4.62
